# Assay results published in PMC8692152, “Cellular Id1 inhibits hepatitis B virus transcription by interacting with the novel covalently closed circular DNA-binding protein E2F4”.
# B1: Biotin-Cp2 (SPR) (dsDNA)
# DNA 1: TTAGATTAAAGGTCTTTGT
# DNA 2: ACAAAGACCTTTAATCTAA
# B2: Cp2-mut (ITC) (dsDNA)
# DNA 1: TTAGATTAAATTTCTTTGT
# DNA 2: ACAAAGAAATTTAATCTAA
# B3: Cp2 (ITC) (dsDNA)
# DNA 1: TTAGATTAAAGGTCTTTGT
# DNA 2: ACAAAGACCTTTAATCTAA
# B4: Control-DNA-biotin (SPR) (dsDNA)
# DNA 1: ATGATGTCACCACAAGAAGT
# DNA 2: ACTTCTTGTGGTGACATCAT
# Experiments:
# E2F4 1-180 [1] = target: T1, E2F4 1-180 (UniProt Q16254 1-180); assay: SPR; SPR: Biacore X100, SA chip, DNA in PBS (137 mM NaCl, 2.7 mM KCl, 10 mM Na2HPO4, 2 mM KH2PO4, pH 7.4), protein 10-320 nM (Fig. S3D legend prints mM); ITC: 250 mM NaCl, 50 mM Tris-HCl pH 7.5; EMSA: Beyotime kit, 6% native gel; temperatures not stated; conditions: protein: recombinant; tags: His (pET28a); chain copies: 2; label: 5'-biotin on sense strand; blunt
# T1 sequence (Q16254 1-180): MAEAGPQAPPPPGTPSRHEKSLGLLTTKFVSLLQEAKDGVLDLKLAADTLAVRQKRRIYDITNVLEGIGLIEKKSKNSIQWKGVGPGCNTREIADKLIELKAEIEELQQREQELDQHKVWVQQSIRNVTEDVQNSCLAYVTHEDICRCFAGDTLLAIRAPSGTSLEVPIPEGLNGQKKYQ
# E2F4 1-88 [2] = target: T2, E2F4 1-88 (UniProt Q16254 1-88); assay: ITC; error exceeds value; SPR: Biacore X100, SA chip, DNA in PBS (137 mM NaCl, 2.7 mM KCl, 10 mM Na2HPO4, 2 mM KH2PO4, pH 7.4), protein 10-320 nM (Fig. S3D legend prints mM); ITC: 250 mM NaCl, 50 mM Tris-HCl pH 7.5; EMSA: Beyotime kit, 6% native gel; temperatures not stated; conditions: protein: recombinant; tags: GST removed with 3C protease (ITC methods); pET28 His construct also described; chain copies: 2; blunt
# T2 sequence (Q16254 1-88): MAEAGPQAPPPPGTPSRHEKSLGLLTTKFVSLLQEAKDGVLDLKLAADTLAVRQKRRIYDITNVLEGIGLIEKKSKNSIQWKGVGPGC
# E2F4 1-88 [3] = target: T2, E2F4 1-88; assay: ITC; SPR: Biacore X100, SA chip, DNA in PBS (137 mM NaCl, 2.7 mM KCl, 10 mM Na2HPO4, 2 mM KH2PO4, pH 7.4), protein 10-320 nM (Fig. S3D legend prints mM); ITC: 250 mM NaCl, 50 mM Tris-HCl pH 7.5; EMSA: Beyotime kit, 6% native gel; temperatures not stated; conditions: protein: recombinant; tags: GST removed with 3C protease (ITC methods); pET28 His construct also described; chain copies: 2; blunt
# E2F4 1-180 [4] = target: T1, E2F4 1-180; assay: SPR; random control DNA; SPR: Biacore X100, SA chip, DNA in PBS (137 mM NaCl, 2.7 mM KCl, 10 mM Na2HPO4, 2 mM KH2PO4, pH 7.4), protein 10-320 nM (Fig. S3D legend prints mM); ITC: 250 mM NaCl, 50 mM Tris-HCl pH 7.5; EMSA: Beyotime kit, 6% native gel; temperatures not stated; conditions: protein: recombinant; tags: His (pET28a); chain copies: 2; label: 5'-biotin on sense strand; blunt
binder,measurement,setting,value
B1,Kd,E2F4 1-180 [1],0.0878 µM
B2,Kd,E2F4 1-88 [2],19.6 ± 31.2 µM
B3,Kd,E2F4 1-88 [3],10.3 ± 4.37 µM
B4,Kd,E2F4 1-180 [4],0.136 µM
